# Results taken from patent US12344648B2.
# How the values were obtained:
# [1] = target: IL-15 receptors on CD8+ T cells and NK cells of cynomolgus monkey whole blood (cynomolgus monkey)
# [2] = target: IL-15 receptors on CD8+ T cells and NK cells of cynomolgus monkey whole blood (cynomolgus monkey); remark: listed apart in the source
"EC50 of STAT5 signaling (pSTAT5), CD8+ T cells, cynomolgus monkey whole blood [1] [ng/ml]","EC50 of STAT5 signaling (pSTAT5), NK cells, cynomolgus monkey whole blood [1] [ng/ml]","fold change of EC50 for pSTAT5 induction against native IL-15, CD8+ T cells, cynomolgus monkey whole blood [2] [fold]","fold change of EC50 for pSTAT5 induction against native IL-15, NK cells, cynomolgus monkey whole blood [2] [fold]",Substance
9.2,1.8,–,–,IL-15_E54[AzK_PEG30] (ligand)
1040,219,164,115,IL-15_L26[AzK_PEG30] (ligand)
15.7,3.9,–,–,IL-15_N78[AzK_PEG30] (ligand)
6.3,1.9,–,–,native IL-15 (from UniProt P40933) (ligand)
